Targets include HLA-A*68:01; HLA-A*03:01; HLA-A*33:01; HLA-A*31:01; HLA-A*11:01.
Holding throughout (test): IEDB peptide-MHC binding, purified MHC/competitive/radioactivity; filed as Kd, often an IC50 or EC50 that approximates it; ≥ and ≤ were set here for values at or beyond the usual limits of such assays
[1] abbreviates: source organism: Lassa virus GA391.
Where [2] appears, read: source organism: Vaccinia virus WR.
[3] abbreviates: source organism: SARS coronavirus Tor2.
The mark [4] stands for this setting: source organism: Mammarenavirus juninense.

As to SLMSIISTFH, the Kd (as a rule, a measure of binding affinity in units of concentration) with HLA-A*68:01 (setting [1]) was 3350 nM; with HLA-A*03:01 (setting [1]), 850 nM; in the assay with HLA-A*33:01 (setting [1]), at least 25 µM; with HLA-A*31:01 (setting [1]), 3740 nM; with HLA-A*11:01 (setting [1]) it was 2280 nM.
As to SSGFYFEIAR, the Kd in the assay with HLA-A*68:01 (setting [2]) is 13.3 nM; with HLA-A*03:01 (setting [2]) it was at least 21300 nM; with HLA-A*33:01 (setting [2]), 0.179 µM; in the assay with HLA-A*31:01 (setting [2]) it was 14.2 nM; with HLA-A*11:01 (setting [2]) it was 90.6 nM.
In the case of SSIVRQLFK, the Kd in the assay with HLA-A*68:01 (setting [3]) is 392 nM; with HLA-A*03:01 (setting [3]) it was 58.8 nM; with HLA-A*33:01 (setting [3]) it was at least 77.7 µM; with HLA-A*31:01 (setting [3]), 2000 nM; with HLA-A*11:01 (setting [3]), 73.2 nM.
For STCMMCYKR the same measures were 17.8 nM, 2250 nM, 0.0245 µM, 5.01 nM and 9.05 nM.
The corresponding values for STRHPSKLR are 101 nM, 440 nM, 0.246 µM, 9.74 nM and 3210 nM.
With STVKTNLYMK, the Kd is 2.27 nM in the assay with HLA-A*68:01 (setting [2]); 212 nM in the assay with HLA-A*03:01 (setting [2]); at least 70 µM with HLA-A*33:01 (setting [2]); 640 nM with HLA-A*31:01 (setting [2]); 3.96 nM with HLA-A*11:01 (setting [2]).
Consider SVDIETAIR, for which the dissociation constant (Kd) with HLA-A*68:01 (setting [2]) was 187 nM; in the assay with HLA-A*03:01 (setting [2]), at least 78000 nM; with HLA-A*33:01 (setting [2]) it was 17.5 µM; with HLA-A*31:01 (setting [2]) it was 1800 nM; in the assay with HLA-A*11:01 (setting [2]), 53 nM.
With SVFKGFSDK, the Kd with HLA-A*68:01 (setting [2]) amounted to 5.49 nM; with HLA-A*03:01 (setting [2]), 4.28 nM; in the assay with HLA-A*33:01 (setting [2]), 13.5 µM; with HLA-A*31:01 (setting [2]) it was 764 nM; with HLA-A*11:01 (setting [2]), 0.852 nM.
In the case of SVSPKLFIR, the Kd with HLA-A*68:01 (setting [3]) was 1420 nM; with HLA-A*03:01 (setting [3]) it was 7450 nM; with HLA-A*33:01 (setting [3]), 12.5 µM; with HLA-A*31:01 (setting [3]), 116 nM; with HLA-A*11:01 (setting [3]) it was 755 nM.
On to SVVNARLRAK, for which the Kd in the assay with HLA-A*68:01 (setting [3]) was 250 nM; with HLA-A*03:01 (setting [3]) it was 65.5 nM; in the assay with HLA-A*33:01 (setting [3]), at least 33.7 µM; with HLA-A*31:01 (setting [3]), 1370 nM; with HLA-A*11:01 (setting [3]), 89.9 nM.
For the sequence TAVAKCNLNH, the Kd was at least 70100 nM with HLA-A*68:01 (setting [4]); at least 70000 nM with HLA-A*03:01 (setting [4]); 9.99 µM with HLA-A*33:01 (setting [4]); at least 70000 nM in the assay with HLA-A*31:01 (setting [4]); at least 69700 nM with HLA-A*11:01 (setting [4]).
In the case of TIERIFNAK, the Kd amounted to 19.8 nM with HLA-A*68:01 (setting [2]); 3190 nM with HLA-A*03:01 (setting [2]); 1.98 µM with HLA-A*33:01 (setting [2]); 240 nM with HLA-A*31:01 (setting [2]); 1.16 nM in the assay with HLA-A*11:01 (setting [2]).
The corresponding values for TLVPVLEKK are 117 nM, 237 nM, 14 µM, 332 nM and 15.9 nM.
In the case of TQYNRYLALY, the Kd with HLA-A*68:01 (setting [3]) worked out at 99.3 nM; in the assay with HLA-A*03:01 (setting [3]) it was 266 nM; with HLA-A*33:01 (setting [3]), 1.61 µM; with HLA-A*31:01 (setting [3]), 283 nM; in the assay with HLA-A*11:01 (setting [3]), 1570 nM.
For TTFDAEYCR the same measures were 2.05 nM, at least 33800 nM, 0.111 µM, 103 nM and 76.1 nM.
The corresponding values for TVCTVCGMWK are 52.2 nM, 24 nM, 0.587 µM, 188 nM and 5.49 nM.
With TVVQRCASNK, the Kd turned out to be 122 nM with HLA-A*68:01 (setting [3]); 140 nM with HLA-A*03:01 (setting [3]); 7.49 µM with HLA-A*33:01 (setting [3]); 224 nM with HLA-A*31:01 (setting [3]); 103 nM with HLA-A*11:01 (setting [3]).
Consider VFSFWLLCK, for which the Kd with HLA-A*68:01 (setting [2]) was 298 nM; with HLA-A*03:01 (setting [2]), 281 nM; in the assay with HLA-A*33:01 (setting [2]), 4.13 µM; with HLA-A*31:01 (setting [2]), 872 nM; with HLA-A*11:01 (setting [2]) it was 11.9 nM.
For VLAAECTIFK, the Kd worked out at 258 nM in the assay with HLA-A*68:01 (setting [3]); 59.9 nM with HLA-A*03:01 (setting [3]); 0.0702 µM in the assay with HLA-A*33:01 (setting [3]); 133 nM with HLA-A*31:01 (setting [3]); 104 nM with HLA-A*11:01 (setting [3]).
On to VLDIISSKQY, for which the Kd was determined as 1390 nM with HLA-A*68:01 (setting [2]); 601 nM with HLA-A*03:01 (setting [2]); 1.43 µM with HLA-A*33:01 (setting [2]); 518 nM with HLA-A*31:01 (setting [2]); 9680 nM with HLA-A*11:01 (setting [2]).
